Measurements reported in patent US20090081197A1, “Methods for Selection of Melanocortin Receptor-Specific Agents for Treatment of Obesity” (Palatin Technologies, Inc., priority 2007, published 2009).

Assays:
[1] = target: human melanocortin 5 receptor (human) (UniProt P33032); assay: radioligand competition, [I125]-NDP-α-MSH, hMC5-R membranes, 1 µM compound
human MC1-R (human) = human MC1-R (human) (UniProt Q01726); assay: radioligand competition, NDP-α-MSH, human MC1-R, normal system
[2] = target: human melanocortin 4 receptor (human) (UniProt P32245); assay: cell-based or functional assay
[3] = target: human melanocortin 4 receptor (human) (UniProt P32245); assay: radioligand competition, [I125]-NDP-α-MSH, hMC4-R membranes, 1 µM compound
[4] = target: human melanocortin 4 receptor (human) (UniProt P32245); assay: radioligand competition, [I125]-NDP-α-MSH, hMC4-R membranes
[5] = target: human melanocortin 5 receptor (human) (UniProt P33032); assay: radioligand competition, [I125]-NDP-α-MSH, hMC5-R membranes
[6] = target: MC1-R of B-16 mouse melanoma cells (mouse) (UniProt Q01727); assay: radioligand competition, [I125]-NDP-α-MSH, B-16 membranes
[7] = target: MC1-R of B-16 mouse melanoma cells (mouse) (UniProt Q01727); assay: radioligand competition, [I125]-NDP-α-MSH, B-16 membranes, 1 µM compound
[8] = target: human melanocortin 3 receptor (human) (UniProt P41968); assay: radioligand competition, [I125]-NDP-α-MSH, hMC3-R membranes, 1 µM compound
[9] = target: human melanocortin 3 receptor (human) (UniProt P41968); assay: radioligand competition, [I125]-NDP-α-MSH, hMC3-R membranes

Sequence of human melanocortin 4 receptor (human) (P32245 whole entry): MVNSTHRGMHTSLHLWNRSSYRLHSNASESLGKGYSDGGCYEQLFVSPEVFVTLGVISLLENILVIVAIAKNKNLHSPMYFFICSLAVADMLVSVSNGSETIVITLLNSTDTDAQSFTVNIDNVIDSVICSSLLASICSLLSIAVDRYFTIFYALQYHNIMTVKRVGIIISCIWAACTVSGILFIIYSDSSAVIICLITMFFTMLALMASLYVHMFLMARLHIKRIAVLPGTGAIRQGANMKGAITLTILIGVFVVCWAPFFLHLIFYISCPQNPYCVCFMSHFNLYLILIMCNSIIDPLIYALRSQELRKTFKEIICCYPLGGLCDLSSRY
Sequence of MC1-R of B-16 mouse melanoma cells (mouse) (Q01727 whole entry): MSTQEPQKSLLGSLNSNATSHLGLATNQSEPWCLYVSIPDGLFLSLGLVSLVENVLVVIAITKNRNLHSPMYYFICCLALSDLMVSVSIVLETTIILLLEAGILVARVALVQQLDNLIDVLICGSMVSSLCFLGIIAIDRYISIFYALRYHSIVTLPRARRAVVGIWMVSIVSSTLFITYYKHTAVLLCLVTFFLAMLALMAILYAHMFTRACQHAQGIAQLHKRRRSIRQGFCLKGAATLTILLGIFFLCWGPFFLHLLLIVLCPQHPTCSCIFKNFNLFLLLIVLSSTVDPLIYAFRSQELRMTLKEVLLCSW
Sequence of human melanocortin 3 receptor (human) (P41968 whole entry): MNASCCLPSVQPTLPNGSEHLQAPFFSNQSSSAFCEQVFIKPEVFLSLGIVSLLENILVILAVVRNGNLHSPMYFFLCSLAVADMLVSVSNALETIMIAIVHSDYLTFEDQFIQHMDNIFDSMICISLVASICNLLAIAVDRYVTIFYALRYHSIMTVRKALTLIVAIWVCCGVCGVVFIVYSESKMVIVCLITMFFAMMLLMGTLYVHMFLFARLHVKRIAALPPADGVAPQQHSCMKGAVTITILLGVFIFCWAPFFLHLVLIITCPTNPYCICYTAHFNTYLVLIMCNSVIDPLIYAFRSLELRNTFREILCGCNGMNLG
Sequence of human melanocortin 5 receptor (human) (P33032 whole entry): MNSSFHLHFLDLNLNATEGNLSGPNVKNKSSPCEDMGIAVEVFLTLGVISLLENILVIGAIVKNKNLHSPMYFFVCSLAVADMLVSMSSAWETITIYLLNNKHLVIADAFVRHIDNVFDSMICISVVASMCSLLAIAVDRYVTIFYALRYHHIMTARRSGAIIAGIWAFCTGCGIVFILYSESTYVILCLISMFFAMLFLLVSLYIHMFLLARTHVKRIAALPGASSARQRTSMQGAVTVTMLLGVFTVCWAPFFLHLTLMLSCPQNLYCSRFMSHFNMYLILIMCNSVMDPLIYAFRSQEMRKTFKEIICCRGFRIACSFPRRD
Sequence of human MC1-R (human) (Q01726 whole entry): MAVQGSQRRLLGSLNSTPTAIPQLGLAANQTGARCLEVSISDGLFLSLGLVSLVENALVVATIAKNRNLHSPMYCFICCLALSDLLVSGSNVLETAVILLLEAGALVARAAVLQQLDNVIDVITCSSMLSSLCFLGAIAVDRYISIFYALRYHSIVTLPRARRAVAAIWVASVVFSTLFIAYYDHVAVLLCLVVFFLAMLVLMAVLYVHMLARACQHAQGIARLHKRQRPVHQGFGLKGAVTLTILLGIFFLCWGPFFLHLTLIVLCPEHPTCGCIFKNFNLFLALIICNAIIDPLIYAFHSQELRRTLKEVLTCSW

Inhibition at 1 µM (NDP-α-MSH) [1]: 100%
Ki (human MC1-R (human)): 250 pM
pA2 (antagonism of NDP-α-MSH-stimulated cAMP, Schild analysis), normal system [2]: 8.1
Inhibition at 1 µM (NDP-α-MSH) [3]: 100%
Ki [4]: 20 pM
Ki [5]: 200 pM
Ki [6]: 200 pM
Inhibition at 1 µM (NDP-α-MSH) [7]: 102%
Inhibition at 1 µM (NDP-α-MSH) [8]: 98%
Ki [9]: 300 pM
B1: Ac-Nle-cyclo(Asp-His-D-Nal 2-Arg-Nal 2-Lys)-OH (peptide)
peptide: XDHXRXK
modifications: N-terminal acetyl; Nle at 1 (X); D-Nal 2 at 4 (X); Nal 2 at 6 (X); cyclo(Asp 2 to Lys 7); free C-terminal acid
